The target in data set [1] is GFP^2-plas1-RLuc2 fusion protein (BRET^2 plasmin sensor).
Data set [2] addresses GFP^2-Pflu3-RLuc2 fusion protein (Pflu sensor 3).
Data set [3] concerns the target GFP^2-Pflu-H3-RLuc2 fusion protein.
The target of data set [4] is GFP^2-Pflu-H1-RLuc2 fusion protein.
Data set [5] has as its target GFP^2-Pflu-H2-RLuc2 fusion protein.
Data set [6] concerns the target GFP^2-Pflu-H4-RLuc2 fusion protein.

Consider two proteins from patent publication US20190345535.

Where “and” joins values, the source holds several entries; their conditions need not be identical. Identical values can stand only once.

B1: human plasmin (Sigma) (protein)
chain: KVYLSECKTGNGKNYRGTMSKTKNGITCQKWSSTSPHRPRFSPATHPSEGLEENYCRNPDNDPQGPWCYTTDPEKRYDYCDILECEEECMHCSGENYDGKISKTMSGLECQAWDSQSPHAHGYIPSKFPNKNLKKNYCRNPDRELRPWCFTTDPNKRWELCDIPRCTTPPPSSGPTYQCLKGTGENYRGNVAVTVSGHTCQHWSAQTPHTHNRTPENFPCKNLDENYCRNPDGKRAPWCHTTNSQVRWEYCKIPSCDSSPVSTEQLAPTAPPELTPVVQDCYHGDGQSYRGTSSTTTTGKKCQSWSSMTPHRHQKTPENYPNAGLTMNYCRNPDADKGPWCFTTDPSVRWEYCNLKKCSGTEASVVAPPPVVLLPDVETPSEEDCMFGNGKGYRGKRATTVTGTPCQDWAAQEPHRHSIFTPETNPRAGLEKNYCRNPDGDVGGPWCYTTNPRKLYDYCDVPQCAAPSFDCGKPQVEPKKCPGRVVGGCVAHPHSWPWQVSLRTRFGMHFCGGTLISPEWVLTAAHCLEKSPRPSSYKVILGAHQEVNLEPHVQEIEVSRLFLEPTRKDIALLKLSSPAVITDKVIPACLPSPNYVVADRTECFITGWGETQGTFGAGLLKEAQLPVIENKVCNRYEFLNGRVQSTELCAGHLAGGTDSCQGDSGGPLVCFEKDKYILQGVTSWGLGCARPNKPGVYVRVSRFVTWIEGVMRNN
As for B1, in data set [1], the “Linear response, BRET^2, raw milk, one-step pre-treatment protocol” value was “between 1.6 nM (90%) and 128 nM (10%) plasmin”; the “Linear response, BRET^2, raw milk, one-step pre-treatment with low power sonication” value is “linear between 5.5 nM (90%) and 107 nM (10%)”. Further, the Linear range (10%-90% BRET^2 response), 50% full fat UHT milk in data set [2] is 452 nM and 3620 nM.

B2: bovine plasmin (Sigma) (protein)
chain: RIYLLECKTGNGQTYRGTTAETKSGVTCQKWSATSPHVPKFSPEKFPLAGLEENYCRNPDNDENGPWCYTTDPDKRYDYCDIPECEDKCMHCSGENYEGKIAKTMSGRDCQAWDSQSPHAHGYIPSKFPNKNLKMNYCRNPDGEPRPWCFTTDPQKRWEFCDIPRCTTPPPSSGPKYQCLKGTGKNYGGTVAVTESGHTCQRWSEQTPHKHNRTPENFPCKNLEENYCRNPNGEKAPWCYTTNSEVRWEYCTIPSCESSPLSTERMDVPVPPEQTPVPQDCYHGNGQSYRGTSSTTITGRKCQSWSSMTPHRHLKTPENYPNAGLTMNYCRNPDADKSPWCYTTDPRVRWEFCNLKKCSETPEQVPAAPQAPGVENPPEADCMIGTGKSYRGKKATTVAGVPCQEWAAQEPHQHSIFTPETNPQSGLERNYCRNPDGDVNGPWCYTMNPRKPFDYCDVPQCESSFDCGKPKVEPKKCSGRIVGGCVSKPHSWPWQVSLRRSSRHFCGGTLISPKWVLTAAHCLDNILALSFYKVILGAHNEKVREQSVQEIPVSRLFREPSQADIALLKLSRPAIITKEVIPACLPPPNYMVAARTECYITGWGETQGTFGEGLLKEAHLPVIENKVCNRNEYLDGRVKPTELCAGHLIGGTDSCQGDSGGPLVCFEKDKYILQGVTSWGLGCARPNKPGVYVRVSPYVPWIEETMRRN
Regarding B2, the Plasmin response (%), BRET^2, 1 nM Bovine plasmin in UHT milk in data set [3] is 0.9%; in data set [4] it was 4.9%; in data set [5], 7.9%; in data set [6], 6.3%.
